The source of these data is patent US20200016512A1, “AFFINITY […] FOR PURIFYING IMMUNOGLOBULIN” (KANEKA CORPORATION, priority 2017, published 2020).

This data set relates to Fab. Kind of data set: Residual binding activity to Fab after alkali treatment (alkali resistance). It is filed as physicochemical, human. As to conditions: 0.2 mL peptide solution + 0.1 mL 45 mM sodium hydroxide, 25° C., 2 hours; compared with SpG mutant SEQ ID NO: 20. The method, then: Each peptide was subjected to dialysis using ultrapure water and the concentration thereof was adjusted to obtain 4 μM aqueous solution. To 0.2 mL of the aqueous solution, 0.1 mL corresponding to a half amount of the aqueous solution of 45 mM sodium hydroxide aqueous was added. The mixture was incubated at 25° C. for 2 hours and then neutralized by 0.1 mL of 50 mM acetic acid (pH 3.0). After it was confirmed that the mixture was neutralized by using a pH test paper, the mixture was diluted to 20 times by the standard buffer so that the concentration was adjusted to 100 nM.
The peptide solution prepared as the above was defined as a sample before alkali treatment at 0 hr, and 0.1 mL of the above sodium hydroxide aqueous solution and 0.1 mL of 50 mM acetic acid (pH 3.0) were preliminarily mixed and the mixture was added to the sample. The final concentration of the peptide in the solution was 100 nM.
A binding to an immunoglobulin by a similar method to Example 2(2) using Octet and the peptide solutions before and after the alkali treatment prepared in the above (1) was measured. An Fc was used instead of IgG in this experiment in order to simplify a binding pattern. […]
A residual binding activity to a Fab of the Fab-binding activity-enhanced peptides of SEQ ID NOs: 11 and 13 after the alkali resistance was also evaluated. […]

As to “SEQ ID NO: 11: Fab-binding activity-enhanced immunoglobulin-binding peptide, partly mutated sequence of SEQ ID NOs: 2 to 7 (TTYKLIVKGNTLTGYTTTIAVDAETAEKALKQFANENGVYGEWSYDDATKTFTVTE; novel peptide)”, the “Alkali resistance: residual binding activity to a Fab after the alkali treatment (FIG. 3B)” value was “similarly improved”.

For the substance “SEQ ID NO: 13: Fab-binding activity-enhanced immunoglobulin-binding peptide, partly mutated sequence of SEQ ID NOs: 2 to 7 (TTYRLVIKGVTLTGYTATIAVDAATAEQTLRQFANDNGITGEWAYDTATKTFTVTE; novel peptide)”, the “Alkali resistance: residual binding activity to a Fab after the alkali treatment (FIG. 3B)” value was “similarly improved”.
